{"source": "patent US12723243B2", "about": "“Archaeal pyrrolysyl tRNA synthetases for orthogonal use” (European Molecular Biology Laboratory, priority 2016, dated 2026)", "test_system": "mCherry-GFP^Y39TAG amber suppression reporter", "test": "Amber suppression in baculovirus-transduced Sf21 insect cells, flow cytometry", "format": "cell-based, Spodoptera frugiperda", "experimental": "Following standard protocols, insect cells of line Sf21 were cultured in a protein-free, serum-free standard culture medium for Spodoptera frugiperda cells (Sf-900™ III SFM) at 27° C. shaking at 180 rpm. The Sf21 cells were split every day to a density of 0.6×10^6 cells/ml or every third day to a density of 0.3×10^6 cells/ml.\nBaculovirus shuttle vector (Bacmid) DNA containing an expression cassette encoding tRNA^Pyl, mCherry-GFP^Y39TAG and either PylRS^AF or NES-PylRS^AF was prepared using standard cloning and recombination procedures.\nFor transfection 3 ml/well of 0.3×10^6 Sf21 cells/ml were seeded in a 6-well cell culture multidish (Nunclon Delta Surface, Thermo scientific) and transfected with Bacmid DNA using a nonliposomal transfection reagent (FuGENE®HD Transfection Reagent, Promega) following the manufacturer's instructions. V0-virus was harvested 70 h post transfection and the V1-generation was started. Therefor, 25 ml Sf21 cells at 0.6×10^6 cells/ml were transfected with 3 ml of the Vo-virus. After cell proliferation stopped, the cultures were kept for another 48-60 h at 27° C. shaking at 180 rpm. The transfected cells were harvested by centrifugation (500 rpm, 10 min) and the supernatant (i.e., the V1-Virus) was stored at 4° C.\n5-25 ml Sf21 cells at 0.6×10^6 cells/ml were transduced with V1-virus prepared by method (I) at a ratio of 100:1 vol/vol (cells:virus). One day afterwards, different amounts of UAA 1 (0-1 mM final concentration) was added to the cultures. After three days of culture, the cells were harvested by centrifugation (500 rpm, 10 min), cooled down to 4° C., resuspended in 2 ml sterile 1×PBS, filtered through a cell strainer (Falcon, 70 μm, Fisher Scientific) and kept on ice until analysis. Data for 500,000 cells of each sample was acquired and analyzed using a LSRFortessa SORP Cell Analyzer (Becton, Dickinson and Company) and the FlowJo software (FlowJo Enterprise). Cells were gated first by cell type (using FSC-A×SSC-A parameters) and then by single cell (FSC-A×SSC-W). GFP fluorescence was acquired in the 488-530/30 channel and mCherry fluorescence in the 561-610/20 channel.\nSf21 cells were transduced with Bacmid DNA encoding tRNA^Pyl, mCherry-GFP^Y39TAG, and either PylRS^AF or NES-PylRS^AF, cultured with different concentrations (0, 10, 50, 100, 250, 500 or 1000 μM) of UAA 1 (BOC) and analyzed using methods (I) and (J) described herein.\nmCherry fluorescence of the cells indicated successful transduction with Bacmid DNA. GFP fluorescence of the cells indicated successful suppression of the amber stop codon encoding amino acid position 39 of the GFP^Y39TAG reporter gene by incorporation of UAA 1 at said position.", "data": [{"molecule": "PylRS^AF: mutant M. mazei pyrrolysyl tRNA synthetase comprising amino acid substitutions Y306A and Y384F, SEQ ID NO:2 (protein, Methanosarcina mazei PylRS Y306A, Y384F mutant; MUTAGEN 306 Y306A mutation; MUTAGEN 384 Y384F mutation) MDKKPLNTLISATGLWMSRTGTIHKIKHHEVSRSKIYIEMACGDHLVVNNSRSSRTARALRHHKYRKTCKRCRVSDEDLNKFLTKANEDQTSVKVKVVSAPTRTKKAMPKSVARAPKPLENTEAAQAQPSGSKFSPAIPVSTQESVSVPASVSTSISSISTGATASALVKGNTNPITSMSAPVQASAPALTKSQTDRLEVLLNPKDEISLNSGKPFRELESELLSRRKKDLQQIYAEERENYLGKLEREITRFFVDRGFLEIKSPILIPLEYIERMGIDNDTELSKQIFRVDKNFCLRPMLAPNLANYLRKLDRALPDPIKIFEIGPCYRKESDGKEHLEEFTMLNFCQMGSGCTRENLESIITDFLNHLGIDFKIVGDSCMVFGDTLDVMHGDLELSSAVVGPIPLDREWGIDKPWIGAGFGLERLLKVKHDFKNIKRAARSESYYNGISTNL", "values": [{"measurement": "Cells showing both mCherry and GFP fluorescence", "setting": "Sf21, UAA 1 conc. 0 μM", "result": 1.4, "unit": "%"}, {"measurement": "Cells showing only mCherry fluorescence", "setting": "Sf21, UAA 1 conc. 0 μM", "result": 94.6, "unit": "%"}, {"measurement": "Cells showing both mCherry and GFP fluorescence", "setting": "Sf21, UAA 1 conc. 10 μM", "result": 20.1, "unit": "%"}, {"measurement": "Cells showing only mCherry fluorescence", "setting": "Sf21, UAA 1 conc. 10 μM", "result": 75.8, "unit": "%"}, {"measurement": "Cells showing both mCherry and GFP fluorescence", "setting": "Sf21, UAA 1 conc. 50 μM", "result": 56.2, "unit": "%"}, {"measurement": "Cells showing only mCherry fluorescence", "setting": "Sf21, UAA 1 conc. 50 μM", "result": 39.3, "unit": "%"}, {"measurement": "Cells showing both mCherry and GFP fluorescence", "setting": "Sf21, UAA 1 conc. 100 μM", "result": 67.1, "unit": "%"}, {"measurement": "Cells showing only mCherry fluorescence", "setting": "Sf21, UAA 1 conc. 100 μM", "result": 25.9, "unit": "%"}, {"measurement": "Cells showing both mCherry and GFP fluorescence", "setting": "Sf21, UAA 1 conc. 250 μM", "result": 76.5, "unit": "%"}, {"measurement": "Cells showing only mCherry fluorescence", "setting": "Sf21, UAA 1 conc. 250 μM", "result": 13.9, "unit": "%"}, {"measurement": "Cells showing both mCherry and GFP fluorescence", "setting": "Sf21, UAA 1 conc. 500 μM", "result": 81.6, "unit": "%"}, {"measurement": "Cells showing only mCherry fluorescence", "setting": "Sf21, UAA 1 conc. 500 μM", "result": 9.1, "unit": "%"}, {"measurement": "Cells showing both mCherry and GFP fluorescence", "setting": "Sf21, UAA 1 conc. 1000 μM", "result": 85.8, "unit": "%"}, {"measurement": "Cells showing only mCherry fluorescence", "setting": "Sf21, UAA 1 conc. 1000 μM", "result": 5.7, "unit": "%"}]}]}
